Reference: publication PMC5910394 (Nature Communications, 2018)

Target: T1, HER2 on BT474 cells (Homo sapiens, BT474 cells, UniProt P04626)
T1 construct: HER2 (human epidermal growth factor receptor 2) on HER2-overexpressing BT474 breast cancer cells; source: endogenous, on BT474 cells
Assay: flow cytometry on cells; BT474 cells with 1, 10 or 100 nM of the AF647-carrying memAb complex
Conditions: one partner purified

B1: memAb pertuzumab IgG with pre-bound 5-diphenylalanine-meditope-Alexa-647 (complex)
VH: EVQLVESGGGLVQPGGSLRLSCAASGFTFTDYTMDWVRQSPGKGLEWVADVNPNSGGSIYNQRFKGRFTLSVDRSKNTLYLQMNSLRAEDTAIYYCARNLGDGFYAMDYWGQGTLVTVSS
VL: DIQLTQSPVILSASVGDRVTITCRAGESVDIFGVGFLHWYQQRTNGSPRLLIYRASNLESGVPSRFSGSGSRTDFTLTISSLQPEDEADYYCQQTNEDPYTFGAGTKVEIK
notes: as the heavy chain of Dm25; as the light chain of Dm25; as the peptide Dm26; non-covalent complex; source: IgG: ExpiCHO, purified; peptide: synthetic; copies: + +
- binding result: binds
